Measurements: publication PMC5290277, “Specialized interfaces of Smc5/6 control hinge stability and DNA association”

T1: Smc5 hinge (extended-hinge);Smc6 hinge (extended-hinge) (Schizosaccharomyces …, UniProt O13710;P53692 364-692;462-773, |)
T1 sequence 1: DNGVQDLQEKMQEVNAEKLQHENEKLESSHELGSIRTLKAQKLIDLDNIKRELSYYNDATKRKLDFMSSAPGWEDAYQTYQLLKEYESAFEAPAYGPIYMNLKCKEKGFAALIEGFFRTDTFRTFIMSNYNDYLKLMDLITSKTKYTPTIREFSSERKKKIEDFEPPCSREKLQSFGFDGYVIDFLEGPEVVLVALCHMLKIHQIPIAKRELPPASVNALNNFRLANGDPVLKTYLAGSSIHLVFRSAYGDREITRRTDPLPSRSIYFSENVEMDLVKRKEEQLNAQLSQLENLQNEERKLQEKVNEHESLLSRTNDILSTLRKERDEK
T1 sequence 2: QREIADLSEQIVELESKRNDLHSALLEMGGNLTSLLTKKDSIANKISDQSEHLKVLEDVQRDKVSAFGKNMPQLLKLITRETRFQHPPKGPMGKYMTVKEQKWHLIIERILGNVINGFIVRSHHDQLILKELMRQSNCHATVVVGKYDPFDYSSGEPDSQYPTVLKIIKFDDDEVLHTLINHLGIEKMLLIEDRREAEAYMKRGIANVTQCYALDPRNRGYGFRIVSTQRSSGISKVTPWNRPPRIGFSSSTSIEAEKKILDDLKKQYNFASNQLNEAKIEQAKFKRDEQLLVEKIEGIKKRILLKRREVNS

T2: Smc5 hinge (extended-hinge);Smc6 hinge F528A (Schizosaccharomyces …, UniProt O13710;P53692 364-692;462-773, |F528A)
T2 sequence 1: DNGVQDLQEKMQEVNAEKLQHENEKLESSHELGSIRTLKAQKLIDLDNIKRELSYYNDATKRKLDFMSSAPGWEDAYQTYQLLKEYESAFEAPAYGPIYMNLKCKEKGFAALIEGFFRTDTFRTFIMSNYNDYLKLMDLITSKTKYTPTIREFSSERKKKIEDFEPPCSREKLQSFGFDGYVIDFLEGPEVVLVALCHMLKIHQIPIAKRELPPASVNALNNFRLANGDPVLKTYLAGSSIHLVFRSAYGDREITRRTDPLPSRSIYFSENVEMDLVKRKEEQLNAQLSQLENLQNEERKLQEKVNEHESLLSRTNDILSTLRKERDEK
T2 sequence 2: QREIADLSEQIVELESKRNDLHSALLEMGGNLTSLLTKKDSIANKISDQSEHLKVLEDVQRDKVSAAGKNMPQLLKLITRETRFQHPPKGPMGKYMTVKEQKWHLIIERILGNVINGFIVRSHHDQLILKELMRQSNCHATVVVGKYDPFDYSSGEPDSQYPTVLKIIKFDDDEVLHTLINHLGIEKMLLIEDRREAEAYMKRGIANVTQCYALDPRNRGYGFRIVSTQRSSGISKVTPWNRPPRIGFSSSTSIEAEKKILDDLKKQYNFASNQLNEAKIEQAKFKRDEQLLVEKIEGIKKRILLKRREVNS

T3: Smc5 hinge (extended-hinge);Smc6 hinge R706C (Schizosaccharomyces …, UniProt O13710;P53692 364-692;462-773, |R706C)
T3 sequence 1: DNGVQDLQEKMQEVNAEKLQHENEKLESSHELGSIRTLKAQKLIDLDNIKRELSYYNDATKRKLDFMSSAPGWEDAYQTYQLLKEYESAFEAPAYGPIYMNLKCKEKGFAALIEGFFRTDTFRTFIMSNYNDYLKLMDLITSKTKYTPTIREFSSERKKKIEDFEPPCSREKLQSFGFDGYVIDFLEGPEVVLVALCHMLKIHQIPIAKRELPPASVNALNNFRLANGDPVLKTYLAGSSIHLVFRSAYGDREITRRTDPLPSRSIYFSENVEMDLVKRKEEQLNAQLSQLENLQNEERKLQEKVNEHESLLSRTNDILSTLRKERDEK
T3 sequence 2: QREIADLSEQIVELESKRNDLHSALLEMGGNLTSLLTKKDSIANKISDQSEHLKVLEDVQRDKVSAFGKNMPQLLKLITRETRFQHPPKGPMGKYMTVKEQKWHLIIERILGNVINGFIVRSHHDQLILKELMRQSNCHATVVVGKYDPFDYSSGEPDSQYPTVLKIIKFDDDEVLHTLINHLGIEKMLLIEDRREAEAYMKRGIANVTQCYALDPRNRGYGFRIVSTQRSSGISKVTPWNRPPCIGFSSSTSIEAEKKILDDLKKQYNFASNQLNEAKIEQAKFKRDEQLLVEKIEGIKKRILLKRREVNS

T4: Smc5 hinge Y612A;Smc6 hinge (extended-hinge) (Schizosaccharomyces …, UniProt O13710;P53692 364-692;462-773, Y612A|)
T4 sequence 1: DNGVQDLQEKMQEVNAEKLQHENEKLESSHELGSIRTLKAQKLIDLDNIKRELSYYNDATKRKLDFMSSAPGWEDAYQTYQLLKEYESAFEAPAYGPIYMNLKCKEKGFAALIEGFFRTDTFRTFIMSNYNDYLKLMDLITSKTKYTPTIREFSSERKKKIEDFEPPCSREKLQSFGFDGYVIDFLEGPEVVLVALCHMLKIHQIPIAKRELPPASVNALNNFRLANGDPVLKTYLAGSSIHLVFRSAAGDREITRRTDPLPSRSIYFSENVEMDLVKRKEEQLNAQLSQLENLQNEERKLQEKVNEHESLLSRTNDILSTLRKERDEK
T4 sequence 2: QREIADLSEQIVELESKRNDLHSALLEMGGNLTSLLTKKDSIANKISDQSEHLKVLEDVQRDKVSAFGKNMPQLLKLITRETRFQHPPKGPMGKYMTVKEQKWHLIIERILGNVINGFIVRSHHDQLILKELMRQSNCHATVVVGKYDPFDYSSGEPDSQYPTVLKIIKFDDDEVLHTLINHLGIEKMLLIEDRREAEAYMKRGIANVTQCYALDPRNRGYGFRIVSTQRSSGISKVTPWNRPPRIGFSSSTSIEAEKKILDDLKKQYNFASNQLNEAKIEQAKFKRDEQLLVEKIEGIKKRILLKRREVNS

B1: switchSENSE 48mer (ssDNA)
DNA: GTGTGAACCCTCCAACAAAGGTAGCATTTGCCAGCTCTCGTGATGCAG
modifications: 5' HS-(CH2)6 thiol linker
B2: 15mer (ssDNA)
DNA: GCTCGTCTGGCTCTG

Columns and labels:
[1] = molecular target: T1, Smc5 hinge (extended-hinge);Smc6 hinge …; assay: switchSENSE; biphasic association and dissociation; 20 mM HEPES.NaOH pH 7.5, 100 mM NaCl, 1 mM EDTA, 0.5 mM TCEP, room temperature 10 min, 100 nM DNA (FP, EMSA); pull-down same buffer, protein incubation 4 C 30 min; switchSENSE buffer not given; details: protein: recombinant;recombinant, tags: N-terminal His6, HRV-3C cleaved;N-terminal StrepII, copies: 1;1, label: 3' Cy3, single strand, immobilized on gold
[2] = molecular target: T2, Smc5 hinge (extended-hinge);Smc6 hinge …; assay: fluorescence polarization; 20 mM HEPES.NaOH pH 7.5, 100 mM NaCl, 1 mM EDTA, 0.5 mM TCEP, room temperature 10 min, 100 nM DNA (FP, EMSA); pull-down same buffer, protein incubation 4 C 30 min; switchSENSE buffer not given; details: protein: recombinant;recombinant, tags: N-terminal His6, HRV-3C cleaved;N-terminal StrepII, copies: 1;1, label: 5' fluorescein, single strand
[3] = molecular target: T3, Smc5 hinge (extended-hinge);Smc6 hinge …; assay: as above; details: protein: recombinant;recombinant, tags: N-terminal His6, HRV-3C cleaved;N-terminal StrepII, copies: 1;1, label: 5' fluorescein, single strand
[4] = molecular target: T1, Smc5 hinge (extended-hinge);Smc6 hinge …; assay: as above; details: protein: recombinant;recombinant, tags: N-terminal His6, HRV-3C cleaved;N-terminal StrepII, copies: 1;1, label: 5' fluorescein, single strand
[5] = molecular target: T4, Smc5 hinge Y612A;Smc6 hinge …; assay: as above; details: protein: recombinant;recombinant, tags: N-terminal His6, HRV-3C cleaved;N-terminal StrepII, copies: 1;1, label: 5' fluorescein, single strand

| Binder | binding result [1] | Kd [2] [nM] | Kd [3] [nM] | Kd [4] [nM] | Kd [5] [nM] |
| --- | --- | --- | --- | --- | --- |
| B1 | binds | – | – | – | – |
| B2 | – | ~1700 | ~1600 | ~1200 | ~1300 |
